Results reported in PMC12290104, “PEAK1 maintains tight junctions in intestinal epithelial cells and resists colitis by inhibiting autophagy-mediated ZO-1 degradation” (Nature Communications, 2025).

How the values were obtained:
ZO-1 = ZO-1 (UniProt Q07157); assay: co-IP of FC-PEAK1, ZO-1 blot; conditions: reference: FC-PEAK1 wild type; sites Y724
GFP-tagged ZO-1 = biological target: T1, GFP-tagged ZO-1 (human, UniProt Q07157 1-1748); assay: pull-down; 10 μg FC-tagged PEAK1^WT or PEAK1^Y724F purified from HEK293T held on Protein A Sepharose (blocked with 10% FBS); GFP-tagged ZO-1 at 0, 1, 2 and 4 μg, 4 h, 4 °C; immunoblot; conditions: both partners purified
T1 construct: ZO-1, human cDNA cloned into pTriEx-GFP; last truncation ends at 1748; also called GFP-ZO-1; GFP-tagged ZO-1 (WT); source: HEK293T, transfected, in lysate; also purified from HEK293T (anti-GFP magnetic beads, glycine pH 2.5 elution)
T1 sequence (Q07157 whole entry, the tested form may be a part): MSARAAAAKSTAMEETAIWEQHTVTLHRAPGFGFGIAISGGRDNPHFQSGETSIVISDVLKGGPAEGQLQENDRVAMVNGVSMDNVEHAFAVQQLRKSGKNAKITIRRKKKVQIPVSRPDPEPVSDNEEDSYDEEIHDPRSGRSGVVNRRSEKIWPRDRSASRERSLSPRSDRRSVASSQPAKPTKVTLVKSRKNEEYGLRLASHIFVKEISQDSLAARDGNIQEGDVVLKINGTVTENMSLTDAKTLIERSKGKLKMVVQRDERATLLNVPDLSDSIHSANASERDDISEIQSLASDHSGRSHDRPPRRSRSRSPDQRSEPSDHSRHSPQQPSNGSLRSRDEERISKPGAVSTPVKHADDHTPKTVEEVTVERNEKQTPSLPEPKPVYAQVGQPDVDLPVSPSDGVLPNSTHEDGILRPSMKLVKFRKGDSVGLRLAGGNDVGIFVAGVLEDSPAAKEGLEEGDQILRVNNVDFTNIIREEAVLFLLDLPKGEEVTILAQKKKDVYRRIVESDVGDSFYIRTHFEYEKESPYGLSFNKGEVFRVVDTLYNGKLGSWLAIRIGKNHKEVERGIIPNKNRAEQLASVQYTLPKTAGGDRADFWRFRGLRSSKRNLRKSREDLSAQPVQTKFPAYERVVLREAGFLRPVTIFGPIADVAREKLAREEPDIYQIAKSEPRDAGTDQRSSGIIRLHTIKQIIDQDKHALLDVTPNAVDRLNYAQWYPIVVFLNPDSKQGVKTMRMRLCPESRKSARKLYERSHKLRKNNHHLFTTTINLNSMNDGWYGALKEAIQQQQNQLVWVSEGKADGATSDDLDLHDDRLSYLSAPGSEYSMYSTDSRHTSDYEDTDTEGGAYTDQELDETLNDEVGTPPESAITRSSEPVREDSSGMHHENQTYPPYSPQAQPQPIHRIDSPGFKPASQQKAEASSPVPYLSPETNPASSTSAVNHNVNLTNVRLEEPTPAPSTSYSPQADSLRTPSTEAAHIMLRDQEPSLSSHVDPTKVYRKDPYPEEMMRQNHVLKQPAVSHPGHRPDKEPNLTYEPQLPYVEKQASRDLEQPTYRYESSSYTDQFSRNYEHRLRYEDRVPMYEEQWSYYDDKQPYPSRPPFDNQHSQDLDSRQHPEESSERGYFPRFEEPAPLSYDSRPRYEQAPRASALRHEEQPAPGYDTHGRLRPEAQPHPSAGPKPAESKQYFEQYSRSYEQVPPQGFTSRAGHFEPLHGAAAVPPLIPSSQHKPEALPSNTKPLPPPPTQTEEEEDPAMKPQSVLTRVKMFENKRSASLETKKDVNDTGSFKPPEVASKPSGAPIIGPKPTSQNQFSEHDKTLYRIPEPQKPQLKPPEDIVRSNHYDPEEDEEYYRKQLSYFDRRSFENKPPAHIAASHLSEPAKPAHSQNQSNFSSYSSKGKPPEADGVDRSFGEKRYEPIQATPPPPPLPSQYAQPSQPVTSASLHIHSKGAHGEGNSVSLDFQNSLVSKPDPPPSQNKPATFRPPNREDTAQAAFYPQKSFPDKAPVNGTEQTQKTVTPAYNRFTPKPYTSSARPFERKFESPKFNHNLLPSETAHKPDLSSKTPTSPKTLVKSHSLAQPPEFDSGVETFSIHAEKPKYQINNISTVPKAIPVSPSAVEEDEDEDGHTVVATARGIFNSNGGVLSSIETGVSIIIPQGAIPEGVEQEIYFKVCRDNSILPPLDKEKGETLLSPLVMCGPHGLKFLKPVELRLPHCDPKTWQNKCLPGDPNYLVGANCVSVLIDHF

binding against the reference (ZO-1)	binding result (GFP-tagged ZO-1)	Molecule
weaker		PEAK1 (from UniProt Q9H792) FC-PEAK1 Y724F
	binds	FC-tagged PEAK1^WT (Fc fusion, human, UniProt Q9H792 1-1746, looked up, PEAK1, human cDNA cloned into pTriEx-FC; also called FC-PEAK1; FC-PEAK1^WT; source: HEK293T, transfected, in lysate; also purified from HEK293T (protein A sepharose, glycine pH 2.5 elution)) MSACNTFTEHVWKPGECKNCFKPKSLHQLPPDPEKAPITHGNVKTNANHSNNHRIRNTGNFRPPVAKKPTIAVKPTMIVADGQSICGELSIQEHCENKPVIIGWNRNRAALSQKPLNNNNEDDEGISHVPKPYGNNDSAKKMSDNNNGLTEVLKEIAGLDTAPQIRGNETNSRETFLGRINDCYKRSLERKLPPSCMIGGIKETQGKHVILSGSTEVISNEGGRFCYPEFSSGEESEEDVLFSNMEEEHESWDESDEELLAMEIRMRGQPRFANFRANTLSPVRFFVDKKWNTIPLRNKSLQRICAVDYDDSYDEILNGYEENSVVSYGQGSIQSMVSSDSTSPDSSLTEESRSETASSLSQKICNGGLSPGNPGDSKDMKEIEPNYESPSSNNQDKDSSQASKSSIKVPETHKAVLALRLEEKDGKIAVQTEKEESKASTDVAGQAVTINLVPTEEQAKPYRVVNLEQPLCKPYTVVDVSAAMASEHLEGPVNSPKTKSSSSTPNSPVTSSSLTPGQISAHFQKSSAIRYQEVWTSSTSPRQKIPKVELITSGTGPNVPPRKNCHKSAPTSPTATNISSKTIPVKSPNLSEIKFNSYNNAGMPPFPIIIHDEPTYARSSKNAIKVPIVINPNAYDNLAIYKSFLGTSGELSVKEKTTSVISHTYEEIETESKVPDNTTSKTTDCLQTKGFSNSTEHKRGSVAQKVQEFNNCLNRGQSSPQRSYSSSHSSPAKIQRATQEPVAKIEGTQESQMVGSSSTREKASTVLSQIVASIQPPQSPPETPQSGPKACSVEELYAIPPDADVAKSTPKSTPVRPKSLFTSQPSGEAEAPQTTDSPTTKVQKDPSIKPVTPSPSKLVTSPQSEPPAPFPPPRSTSSPYHAGNLLQRHFTNWTKPTSPTRSTEAESVLHSEGSRRAADAKPKRWISFKSFFRRRKTDEEDDKEKEREKGKLVGLDGTVIHMLPPPPVQRHHWFTEAKGESSEKPAIVFMYRCDPAQGQLSVDQSKARTDQAAVMEKGRAENALLQDSEKKRSHSSPSQIPKKILSHMTHEVTEDFSPRDPRTVVGKQDGRGCTSVTTALSLPELEREDGKEDISDPMDPNPCSATYSNLGQSRAAMIPPKQPRQPKGAVDDAIAFGGKTDQEAPNASQPTPPPLPKKMIIRANTEPISKDLQKSMESSLCVMANPTYDIDPNWDASSAGSSISYELKGLDIESYDSLERPLRKERPVPSAANSISSLTTLSIKDRFSNSMESLSSRRGPSCRQGRGIQKPQRQALYRGLENREEVVGKIRSLHTDALKKLAVKCEDLFMAGQKDQLRFGVDSWSDFRLTSDKPCCEAGDAVYYTASYAKDPLNNYAVKICKSKAKESQQYYHSLAVRQSLAVHFNIQQDCGHFLAEVPNRLLPWEDPDDPEKDEDDMEETEEDAKGETDGKNPKPCSEAASSQKENQGVMSKKQRSHVVVITREVPCLTVADFVRDSLAQHGKSPDLYERQVCLLLLQLCSGLEHLKPYHVTHCDLRLENLLLVHYQPGGTAQGFGPAEPSPTSSYPTRLIVSNFSQAKQKSHLVDPEILRDQSRLAPEIITATQYKKCDEFQTGILIYEMLHLPNPFDENPELKEREYTRADLPRIPFRSPYSRGLQQLASCLLNPNPSERILISDAKGILQCLLWGPREDLFQTFTACPSLVQRNTLLQNWLDIKRTLLMIKFAEKSLDREGGISLEDWLCAQYLAFATTDSLSCIVKILQHR
